Laboratory results reported in patent US20190100597A1 (IGM BIOSCIENCES, published 2019).

How the values were obtained:
Experiment in all cases: cell-based or functional assay
[1] = target: T1, human CD20 on CD20-expressing cell lines (human, UniProt P11836 1-297)
T1 sequence: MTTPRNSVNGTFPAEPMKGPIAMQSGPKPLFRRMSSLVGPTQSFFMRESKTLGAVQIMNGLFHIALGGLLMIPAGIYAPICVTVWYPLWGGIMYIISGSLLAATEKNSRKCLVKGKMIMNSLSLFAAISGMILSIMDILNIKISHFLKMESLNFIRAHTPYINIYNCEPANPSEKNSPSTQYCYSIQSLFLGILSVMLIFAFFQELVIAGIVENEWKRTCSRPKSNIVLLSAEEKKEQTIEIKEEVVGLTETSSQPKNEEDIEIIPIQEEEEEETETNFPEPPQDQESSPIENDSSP

[2] = target: T1, human CD20 on CD20-expressing cell lines; remark: listed apart in the source
[3] = target: T1, human CD20 on CD20-expressing cell lines; remark: listed apart in the source
[4] = target: T1, human CD20 on CD20-expressing cell lines; remark: listed apart in the source

CDC EC50 on DOHH-2 cells [2] | CDC EC50 on Z-138 cells [2] | CDC (IC50) on Raji cells [4] | Binder | T-cell directed B-cell killing, LDH release, EC50 on DB cells [1] | T-cell directed B-cell killing, LDH release, EC50 on DOHH2 cells [1] | T-cell directed B-cell killing, LDH release, EC50 on Z-138 cells [1] | T-cell directed B-cell killing, LDH release, EC50 on DB cells (molar) [3] | KILR cytotoxicity assay, potency relative to the 1.5.3 IgM antibodies [3]
4.6 nM | > 100 nM | – | 1.5.3 IgG (IgG1) (antibody, V domains shown) VH: EVQLVQSGAEVKKPGESLKISCKGSGYSFTSYWIGWVRQMPGKGLEWMGIIYPGDSDTRYSPSFQGQVTISADKSITTAYLQWSSLKASDTAMYYCARHPSYGSGSPNFDYWGQGTLVTVSS VL: not shown | – | – | – | – | –
22 nM | > 100 nM | > 50 µg/mL | rituximab (IgG1) (antibody, V domains shown) VH: QVQLQQPGAELVKPGASVKMSCKASGYTFTSYNMHWVKQTPGRGLEWIGAIYPGNGDTSYNQKFKGKATLTADKSSSTAYMQLSSLTSEDSAVYYCARSTYYGGDWYFNVWGAGTTVTVSA VL: QIVLSQSPAILSASPGEKVTMTCRASSSVSYIHWFQQKPGSSPKPWIYATSNLASGVPVRFSGSGSGTSYSLTISRVEAEDAATYYCQQWTSNPPTFGGGTKLEIKR | – | – | – | – | ≥ 30 fold less potent

Continued, binder first:

Binder | CDC EC50 on DOHH-2 cells [2] | CDC EC50 on Z-138 cells [2] | CDC (IC50) on Raji cells [4] | T-cell directed B-cell killing, LDH release, EC50 on DB cells [1] | T-cell directed B-cell killing, LDH release, EC50 on DOHH2 cells [1] | T-cell directed B-cell killing, LDH release, EC50 on Z-138 cells [1] | T-cell directed B-cell killing, LDH release, EC50 on DB cells (molar) [3] | KILR cytotoxicity assay, potency relative to the 1.5.3 IgM antibodies [3]
Rituxan IgM+V15J (bispecific anti-CD20 x anti-CD3 IgM pentamer) (bispecific antibody) heavy: QVQLQQPGAELVKPGASVKMSCKASGYTFTSYNMHWVKQTPGRGLEWIGAIYPGNGDTSYNQKFKGKATLTADKSSSTAYMQLSSLTSEDSAVYYCARSTYYGGDWYFNVWGAGTTVTVSSGSASAPTLFPLVSCENSPSDTSSVAVGCLAQDFLPDSITFSWKYKNNSDISSTRGFPSVLRGGKYAATSQVLLPSKDVMQGTDEHVVCKVQHPNGNKEKNVPLPVIAELPPKVSVFVPPRDGFFGNPRKSKLICQATGFSPRQIQVSWLREGKQVGSGVTTDQVQAEAKESGPTTYKVTSTLTIKESDWLSQSMFTCRVDHRGLTFQQNASSMCVPDQDTAIRVFAIPPSFASIFLTKSTKLTCLVTDLTTYDSVTISWTRQNGEAVKTHTNISESHPNATFSAVGEASICEDDWNSGERFTCTVTHTDLPSPLKQTISRPKGVALHRPDVYLLPPAREQLNLRESATITCLVTGFSPADVFVQWMQRGQPLSPEKYVTSAPMPEPQAPGRYFAHSILTVSEEEWNTGETYTCVVAHEALPNRVTERTVDKSTGKPTLYNVSLVMSDTAGTCY light: QIVLSQSPAILSASPGEKVTMTCRASSSVSYIHWFQQKPGSSPKPWIYATSNLASGVPVRFSGSGSGTSYSLTISRVEAEDAATYYCQQWTSNPPTFGGGTKLEIKRTVAAPSVFIFPPSDEQLKSGTASVVCLLNNFYPREAKVQWKVDNALQSGNSQESVTEQDSKDSTYSLSSTLTLSKADYEKHKVYACEVTHQGLSSPVTKSFNRGEC not shown | – | – | – | 0.0005 µg/mL | 0.013 µg/mL | 0.03 µg/mL | – | –
1.5.3 IgM+V15J (bispecific anti-CD20 x anti-CD3 IgM pentamer) (bispecific antibody) heavy: EVQLVQSGAEVKKPGESLKISCKGSGYSFTSYWIGWVRQMPGKGLEWMGIIYPGDSDTRYSPSFQGQVTISADKSITTAYLQWSSLKASDTAMYYCARHPSYGSGSPNFDYWGQGTLVTVSSGSASAPTLFPLVSCENSPSDTSSVAVGCLAQDFLPDSITFSWKYKNNSDISSTRGFPSVLRGGKYAATSQVLLPSKDVMQGTDEHVVCKVQHPNGNKEKNVPLPVIAELPPKVSVFVPPRDGFFGNPRKSKLICQATGFSPRQIQVSWLREGKQVGSGVTTDQVQAEAKESGPTTYKVTSTLTIKESDWLSQSMFTCRVDHRGLTFQQNASSMCVPDQDTAIRVFAIPPSFASIFLTKSTKLTCLVTDLTTYDSVTISWTRQNGEAVKTHTNISESHPNATFSAVGEASICEDDWNSGERFTCTVTHTDLPSPLKQTISRPKGVALHRPDVYLLPPAREQLNLRESATITCLVTGFSPADVFVQWMQRGQPLSPEKYVTSAPMPEPQAPGRYFAHSILTVSEEEWNTGETYTCVVAHEALPNRVTERTVDKSTGKPTLYNVSLVMSDTAGTCY light: not shown not shown | – | – | – | 0.0004 µg/mL | 0.012 µg/mL | 0.033 µg/mL | 0.0004 nM | –
